# Publication PMC8200818, “SPECT/CT Imaging, Biodistribution and Radiation Dosimetry of a ^177Lu-DOTA-Integrin αvβ6 Cystine Knot Peptide in a Pancreatic Cancer Xenograft Model” (Frontiers in Oncology, 2021)
# Entries after “also recorded” stand apart in the source; their conditions may differ.
# Legend:
# [1] = target: T1, integrin αvβ6 (BxPC-3 cells) (Homo sapiens, UniProt P06756+P18564); experiment: Competition binding assay, BxPC-3
# T1 construct: endogenous in cells; host or cells: BxPC-3 (whole adherent cells)
# Protocol: The reaction volume was made up to 30 µl with water. The reaction was carried out for 10 minutes at 80°C.
# For competitive radioligand binding assay, approximately 50,000 cells (BxPC-3 or Capan-2) per well were seeded in a 96 well plate incubated overnight at 37°C. […] After 2 hours of incubation, cells were washed for 2-3 times with ice-cold washing buffer (50 mM Tris-HCl, pH 7.4, 125 mM NaCl, 0.05% BSA) and lysed with 1 N NaOH (80 µl/well). The lysed cells were transferred to vials and measured in a gamma counter (Wallac 1470 Wizard, Perkin Elmer, Waltham, MA, USA). Obtained cpm values were plotted with GraphPad Prism and the data fitted using nonlinear regression (one site - fit Ki, one site - fit logIC50).
# All statistical analyses were performed using GraphPad Prism 5.04. IC50 values were determined by nonlinear sigmoidal curve fitting with variable slope setting. All presented data are based on independent experiments. Numerical data for this study have been deposited in an open data repository for public access: http://doi.org/10.5281/zenodo.4362503.
# [2] = Dosimetric calculation for human adult male (OLINDA/EXM 1.1)
# From the text: Assuming that the organ-to-whole-body activity concentration ratio in mice would equal that in humans, the injected activity concentration (%IA/g) acquired from the mouse biodistribution study was transformed to human whole-organ percentage of injected activity per gram of tissue (%IA/g) human. The mouse uptake data were extrapolated to humans by relative scaling of mass and time using the following two equations,
# (1) (%IA/organ)human=[(%IA/g)mouse×Mmouse(kg)×[m(g)/M(kg)]human
# (2) thuman=tanimal[Mhuman/Manimal]^0.25
# where %IA/g is percentage of injected activity per gram of tissue, %IA/organ is percentage of injected activity per organ; m is organ mass of mouse or human, M is body mass of mouse or human; t is time. The absorbed doses per activity were calculated by using the extrapolated human source organ residence times as input in the OLINDA/EXM 1.1 software (Organ Level Internal Dose Assessment Code, Vanderbilt University, Nashville, USA), with the reference adult male ([25]).
# [3] = adult male human, extrapolated from mouse biodistribution
# T1 sequence (P06756 31-889 limits assumed): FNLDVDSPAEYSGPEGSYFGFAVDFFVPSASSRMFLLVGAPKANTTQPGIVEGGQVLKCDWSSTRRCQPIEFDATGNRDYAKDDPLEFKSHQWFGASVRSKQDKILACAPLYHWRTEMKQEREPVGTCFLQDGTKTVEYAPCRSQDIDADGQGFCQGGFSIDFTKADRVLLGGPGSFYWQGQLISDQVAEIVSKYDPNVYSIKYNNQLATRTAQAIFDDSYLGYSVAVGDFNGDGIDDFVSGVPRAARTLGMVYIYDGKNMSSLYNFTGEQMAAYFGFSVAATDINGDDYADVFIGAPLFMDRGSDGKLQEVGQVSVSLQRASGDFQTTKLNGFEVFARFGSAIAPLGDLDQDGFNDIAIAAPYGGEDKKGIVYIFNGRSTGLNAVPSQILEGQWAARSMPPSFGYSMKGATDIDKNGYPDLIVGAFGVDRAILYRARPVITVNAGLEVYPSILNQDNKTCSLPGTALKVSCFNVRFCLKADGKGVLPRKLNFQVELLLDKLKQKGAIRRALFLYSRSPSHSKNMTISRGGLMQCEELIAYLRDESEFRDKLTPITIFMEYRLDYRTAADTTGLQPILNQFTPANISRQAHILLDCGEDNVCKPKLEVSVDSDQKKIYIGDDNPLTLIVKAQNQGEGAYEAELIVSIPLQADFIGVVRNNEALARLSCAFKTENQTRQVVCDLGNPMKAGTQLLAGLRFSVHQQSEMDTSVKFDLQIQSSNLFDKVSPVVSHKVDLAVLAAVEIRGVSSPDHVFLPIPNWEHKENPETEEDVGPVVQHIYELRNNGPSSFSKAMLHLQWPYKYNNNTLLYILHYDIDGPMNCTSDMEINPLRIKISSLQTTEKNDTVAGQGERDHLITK
# T1 sequence (P06756 891-1048 partner limits assumed): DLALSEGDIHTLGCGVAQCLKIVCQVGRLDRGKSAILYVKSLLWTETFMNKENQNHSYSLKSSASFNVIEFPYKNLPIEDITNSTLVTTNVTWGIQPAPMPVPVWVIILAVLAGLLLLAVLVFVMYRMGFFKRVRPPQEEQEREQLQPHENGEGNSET
# T1 sequence (P18564 22-788): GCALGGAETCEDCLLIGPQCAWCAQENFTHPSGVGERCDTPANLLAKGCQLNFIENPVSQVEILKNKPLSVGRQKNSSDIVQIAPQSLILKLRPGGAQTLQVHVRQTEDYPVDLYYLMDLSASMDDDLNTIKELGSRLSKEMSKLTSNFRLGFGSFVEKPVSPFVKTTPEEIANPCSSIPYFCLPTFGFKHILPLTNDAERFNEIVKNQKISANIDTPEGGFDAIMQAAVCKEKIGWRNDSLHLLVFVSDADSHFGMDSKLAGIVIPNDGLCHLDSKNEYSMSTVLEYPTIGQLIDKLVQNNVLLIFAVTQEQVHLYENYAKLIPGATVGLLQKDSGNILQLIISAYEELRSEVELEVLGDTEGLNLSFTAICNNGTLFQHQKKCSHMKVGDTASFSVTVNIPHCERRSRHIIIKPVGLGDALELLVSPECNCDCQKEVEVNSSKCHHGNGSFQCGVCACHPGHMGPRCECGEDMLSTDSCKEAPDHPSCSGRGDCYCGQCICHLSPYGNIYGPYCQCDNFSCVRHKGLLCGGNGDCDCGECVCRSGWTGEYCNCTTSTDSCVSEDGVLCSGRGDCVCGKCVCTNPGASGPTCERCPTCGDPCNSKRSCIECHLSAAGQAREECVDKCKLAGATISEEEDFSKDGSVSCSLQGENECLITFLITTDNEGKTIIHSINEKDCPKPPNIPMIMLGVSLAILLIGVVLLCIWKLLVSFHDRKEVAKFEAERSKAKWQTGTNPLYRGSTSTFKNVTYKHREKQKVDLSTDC
smiles,measurement,setting,value
"CC[C@H](C)[C@@H]1NC(=O)[C@@H](NC(=O)CNC(=O)CN2CCN(CC(=O)O)CCN(CC(=O)O)CCN(CC(=O)O)CC2)CSSC[C@@H]2NC(=O)[C@H](C)NC(=O)CNC(=O)[C@@H]3CCCN3C(=O)[C@@H]3CSSC[C@@H](C(=O)NCC(=O)O)NC(=O)[C@H](Cc4ccc(O)cc4)NC(=O)CNC(=O)[C@H](CC(N)=O)NC(=O)CNC(=O)[C@H](CCCNC(=N)N)NC(=O)[C@H](CSSC[C@H](NC(=O)[C@H](CCCNC(=N)N)NC(=O)[C@H](Cc4ccccc4)NC(=O)[C@H](CC(C)C)NC(=O)[C@H](CC(C)C)NC(=O)[C@H]([C@@H](C)O)NC(=O)CNC(=O)[C@H](CC(C)C)NC(=O)[C@H](CC(=O)O)NC(=O)[C@H]([C@@H](C)O)NC(=O)[C@H](CCCNC(=N)N)NC(=O)CNC(=O)[C@H](CC(N)=O)NC(=O)[C@H](CC(C)C)NC1=O)C(=O)N[C@@H](CCCNC(=N)N)C(=O)N[C@@H](CCCNC(=N)N)C(=O)N[C@@H](CC(=O)O)C(=O)N[C@@H](CO)C(=O)N[C@@H](CC(=O)O)C(=O)N3)NC(=O)[C@H]([C@@H](C)CC)NC2=O [^177Lu-DOTA-integrin αvβ6 knottin, metal not drawn]",Binding affinity of the ^177Lu tracer,[1],low single-digit nanomolar range; also recorded: high affinity and specific binding to target-positive cells and tumors
same,"Expected absorbed dose, Liver",[2]; [3],9.34E-04 mSv/MBq
same,"Expected absorbed dose, Thymus",[2]; [3],5.08E-06 rem/mCi
same,Dose-limiting organ,"[2]; human projection, preliminary",The absorbed doses in the kidney propose it as the dose-limiting organ
